Results: patent publication US20260176352A1 (BIRD ROCK BIO, published 2026)

What was measured:
[1] = molecular target: T1, native full length human CB1 receptor (cannabinoid 1 receptor) (human, UniProt P21554 1-472); assay: flow cytometry, Fab on TRex-CHO human CB1 cells
T1 construct: whole, on cells; also called A156; Native human CB1 TRex CHO A156
Method: Three-fold serial dilutions from 3 μM to 0.1 μM were prepared.

[2] = molecular target: T1, native full length human CB1 receptor …; assay: cell-based or functional assay
[3] = molecular target: T2, mouse CB1 (mouse, UniProt P47746 1-473); assay: flow cytometry on cells expressing the target
T2 construct: whole, on cells; also called TRexCHO Mouse CB1
T2 sequence (P47746 whole entry): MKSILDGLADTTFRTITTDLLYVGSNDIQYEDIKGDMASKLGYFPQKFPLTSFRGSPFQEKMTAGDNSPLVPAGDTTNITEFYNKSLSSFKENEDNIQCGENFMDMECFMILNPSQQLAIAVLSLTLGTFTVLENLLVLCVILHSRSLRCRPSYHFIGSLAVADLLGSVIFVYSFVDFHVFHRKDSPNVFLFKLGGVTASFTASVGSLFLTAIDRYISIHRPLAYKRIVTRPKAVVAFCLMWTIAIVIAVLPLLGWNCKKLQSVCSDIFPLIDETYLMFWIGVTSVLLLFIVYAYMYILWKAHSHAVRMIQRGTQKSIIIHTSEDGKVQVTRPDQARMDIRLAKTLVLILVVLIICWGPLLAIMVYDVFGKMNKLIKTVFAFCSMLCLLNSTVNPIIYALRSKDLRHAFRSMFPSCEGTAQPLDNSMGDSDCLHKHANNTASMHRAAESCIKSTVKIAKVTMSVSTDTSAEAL

[4] = molecular target: T3, human CB2 (human, UniProt P34972 1-360); assay: flow cytometry on cells expressing the target
T3 construct: whole, on cells; also called TRexCHO Human CB2
T3 sequence (P34972 whole entry): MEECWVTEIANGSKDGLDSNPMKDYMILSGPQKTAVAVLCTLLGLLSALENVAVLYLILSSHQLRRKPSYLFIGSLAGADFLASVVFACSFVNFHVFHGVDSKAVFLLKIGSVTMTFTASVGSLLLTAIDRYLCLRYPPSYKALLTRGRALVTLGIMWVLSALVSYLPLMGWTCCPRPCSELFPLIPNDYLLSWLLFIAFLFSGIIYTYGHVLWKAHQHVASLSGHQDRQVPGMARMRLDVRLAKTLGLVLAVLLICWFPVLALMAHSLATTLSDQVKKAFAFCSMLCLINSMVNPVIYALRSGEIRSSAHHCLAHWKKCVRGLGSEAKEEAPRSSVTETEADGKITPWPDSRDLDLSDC

[5] = molecular target: 5HT2B (expression cell line) (Homo sapiens (Human), UniProt P41595 1-481); assay: flow cytometry on cells expressing the target
5HT2B (expression cell line), sequence (P41595 whole entry): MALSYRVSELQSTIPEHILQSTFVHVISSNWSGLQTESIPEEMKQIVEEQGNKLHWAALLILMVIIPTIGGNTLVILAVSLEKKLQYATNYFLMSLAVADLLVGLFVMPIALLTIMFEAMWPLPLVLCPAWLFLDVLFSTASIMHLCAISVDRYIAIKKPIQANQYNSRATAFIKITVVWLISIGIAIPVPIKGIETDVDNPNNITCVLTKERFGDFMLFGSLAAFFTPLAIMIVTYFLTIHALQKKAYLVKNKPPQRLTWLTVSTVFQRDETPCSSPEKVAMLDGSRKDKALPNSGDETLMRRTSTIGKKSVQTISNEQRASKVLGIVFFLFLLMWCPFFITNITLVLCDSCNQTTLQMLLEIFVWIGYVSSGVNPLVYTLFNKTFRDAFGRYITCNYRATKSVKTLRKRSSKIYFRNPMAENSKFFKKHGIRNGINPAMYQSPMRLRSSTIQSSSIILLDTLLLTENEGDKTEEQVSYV

T1 sequence (P21554 whole entry): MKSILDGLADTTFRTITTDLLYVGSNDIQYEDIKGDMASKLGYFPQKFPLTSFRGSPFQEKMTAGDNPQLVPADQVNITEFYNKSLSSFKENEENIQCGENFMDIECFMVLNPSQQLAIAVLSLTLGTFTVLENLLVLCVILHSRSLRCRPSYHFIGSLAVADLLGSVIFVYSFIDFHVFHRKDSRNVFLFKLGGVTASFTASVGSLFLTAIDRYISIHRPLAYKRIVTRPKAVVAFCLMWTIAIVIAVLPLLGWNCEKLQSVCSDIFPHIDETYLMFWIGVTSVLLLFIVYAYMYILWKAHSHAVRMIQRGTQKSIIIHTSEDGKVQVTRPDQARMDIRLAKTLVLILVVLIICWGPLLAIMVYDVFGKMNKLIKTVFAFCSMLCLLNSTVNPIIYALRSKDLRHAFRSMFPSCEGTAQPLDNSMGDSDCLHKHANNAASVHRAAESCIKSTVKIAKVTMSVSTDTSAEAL

B1: PA13R3-P1C4 Fab (Fab, V domains shown)
VH: EVQLQQSGAELVRPGVSVKISCKASGYEFSYYWMNWVKQRPGQGLEWIGQIYPGDGETKYNGKFKGKATLTADKSSNTAYMQLSSLTSEDSAVYFCARSHGNYLPYWGQGTLVTVSA
VL: DIVLTQSPAIMSASLGERVTMTCTASSSVSSSYLHWYQQKPGSSPKLWIYSTSNLASGVPARFSGSGSGTSYSLTISSMEAEDAATYYCHQYHRSPPTFGAGTKLELK
notes: also called Chimeric P1C4 Fab
[1]
  Kd: 130 nM
[2]
  IC50 cAMP assay: 427 nM
[3]
  binding result: no binding (tested: 1 µM)
[4]
  binding result: no binding (tested: 1 µM)
[5]
  binding result: no binding (tested: 1 µM)
